Measured values reported in publication PMC3835790, “Statistical Experimental Design Guided Optimization of a One-Pot Biphasic Multienzyme Total Synthesis of Amorpha-4,11-diene” (PLoS ONE, 2013).

Tests used:
Settings in all cases: 100 mM Tris/HCl pH 7.4, 30°C
purified protein = substrate: CC(O)(CCO)CC(=O)O; experiment: purified protein
[1] = substrate: C[C@@](O)(CCOP(=O)(O)O)CC(=O)O; experiment: initial rates, UPLC-(TOF)MS, double-reciprocal plot; assay type: biochemical, Saccharomyces cerevisiae
Description: initial rates, UPLC-(TOF)MS, double-reciprocal plot on phosphomevalonate kinase (Erg8)

[2] = substrate: C[C@@](O)(CCOP(=O)(O)OP(=O)(O)O)CC(=O)O; experiment: as above; assay type: biochemical, Saccharomyces cerevisiae
Description: initial rates, UPLC-(TOF)MS, double-reciprocal plot on diphosphomevalonate decarboxylase (Erg19)

B1: mevalonate kinase (Erg12) (Saccharomyces cerevisiae S288C) (protein)
chain: MSLPFLTSAPGKVIIFGEHSAVYNKPAVAASVSALRTYLLISESSAPDTIELDFPDISFNHKWSINDFNAITEDQVNSQKLAKAQQATDGLSQELVSLLDPLLAQLSESFHYHAAFCFLYMFVCLCPHAKNIKFSLKSTLPIGAGLGSSASISVSLALAMAYLGGLIGSNDLEKLSENDKHIVNQWAFIGEKCIHGTPSGIDNAVATYGNALLFEKDSHNGTINTNNFKFLDDFPAIPMILTYTRIPRSTKDLVARVRVLVTEKFPEVMKPILDAMGECALQGLEIMTKLSKCKGTDDEAVETNNELYEQLLELIRINHGLLVSIGVSHPGLELIKNLSDDLRIGSTKLTGAGGGGCSLTLLRRDITQEQIDSFKKKLQDDFSYETFETDLGGTGCCLLSAKNLNKDLKIKSLVFQLFENKTTTKQQIDDLLLPGNTNLPWTS
Km (purified protein): 460 ± 153 µM
kcat (purified protein): 5.5 s⁻¹

B2: phosphomevalonate kinase (Erg8) (Saccharomyces cerevisiae S288C) (protein)
chain: MSELRAFSAPGKALLAGGYLVLDTKYEAFVVGLSARMHAVAHPYGSLQGSDKFEVRVKSKQFKDGEWLYHISPKSGFIPVSIGGSKNPFIEKVIANVFSYFKPNMDDYCNRNLFVIDIFSDDAYHSQEDSVTEHRGNRRLSFHSHRIEEVPKTGLGSSAGLVTVLTTALASFFVSDLENNVDKYREVIHNLAQVAHCQAQGKIGSGFDVAAAAYGSIRYRRFPPALISNLPDIGSATYGSKLAHLVDEEDWNITIKSNHLPSGLTLWMGDIKNGSETVKLVQKVKNWYDSHMPESLKIYTELDHANSRFMDGLSKLDRLHETHDDYSDQIFESLERNDCTCQKYPEITEVRDAVATIRRSFRKITKESGADIEPPVQTSLLDDCQTLKGVLTCLIPGAGGYDAIAVITKQDVDLRAQTANDKRFSKVQWLDVTQADWGVRKEKDPETYLDK
notes: 6xHis-tagged, modified pET-11a, expressed in E. coli, Ni-NTA purified; calculated mass 51520
Km [1]: 780 ± 280 µM
kcat [1]: 22 ± 7 s⁻¹

B3: diphosphomevalonate decarboxylase (Erg19) (Saccharomyces cerevisiae S288C) (protein)
chain: MTVYTASVTAPVNIATLKYWGKRDTKLNLPTNSSISVTLSQDDLRTLTSAATAPEFERDTLWLNGEPHSIDNERTQNCLRDLRQLRKEMESKDASLPTLSQWKLHIVSENNFPTAAGLASSAAGFAALVSAIAKLYQLPQSTSEISRIARKGSGSACRSLFGGYVAWEMGKAEDGHDSMAVQIADSSDWPQMKACVLVVSDIKKDVSSTQGMQLTVATSELFKERIEHVVPKRFEVMRKAIVEKDFATFAKETMMDSNSFHATCLDSFPPIFYMNDTSKRIISWCHTINQFYGETIVAYTFDAGPNAVLYYLAENESKLFAFIYKLFGSVPGWDKKFTTEQLEAFNHQFESSNFTARELDLELQKDVARVILTQVGSGPQETNESLIDAKTGLPKE
notes: 6xHis-tagged, modified pET-11a, expressed in E. coli, Ni-NTA purified; calculated mass 45181
Km [2]: 190 ± 52 µM
kcat [2]: 2.8 ± 0.5 s⁻¹
